Assay results as given in the RNAGym collection of RNA variant scans (doi:10.1073/pnas.2313332121).

B1: TPR t1 (parent)
chain: GACCAAUCUGCCCUCAGAGCUCGAGAACAUCUUCGGAUGCAGAGGAGGCAGGCUUCGGUGGCGCGAUAGCGCCAACGUCCUCAACCUCCAAUGCAUCCCACCACAUGAUGAUGCCUGAAGAGCCUUGGUUUUUUG

Variants of: B1
Assay: polymerase ribozyme fitness, log enrichment relative to wild type (log ratio); higher = more active; in vitro selection for triplet polymerase activity
How it was run: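 One round of in vitro selection, in triplicate, was applied to PCR-built, transcribed mutant libraries of each subunit of a heterodimeric triplet polymerase ribozyme. The steps were annealing with a biotinylated primer, partner subunit and triplets, incubation frozen at −7 °C, gel excision of extended constructs, streptavidin-bead capture and RT-PCR. Fitness is the logarithm, base 2, of genotype enrichment over wild-type enrichment from inverse-variance-weighted replicate averages of Illumina-sequenced inputs and outputs, keeping genotypes with ≥10 input reads and ≥1 read per output.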

Variant | polymerase ribozyme fitness (log ratio)
U54C G71A C102A C123A | -3.7
G93U G120C | -0.763
U32C U54C G71C A95C | -3.01
G113A C123G C124A | -3.66
C22G A26C G42C A84U | -6.04
G10U G36C C86G G128C | -5.29
U21A U59A C62A | -3.07
C11G A18G C49G C56U | -3.38
A43U G58U G113A | -2.63
C13A A29G C53U | -2.88
A5U A18G C20G C82U C94U A111C U112G A121C | -6.26
C62A U130A | -1.33
C15G G120A | -1.53
G10A G48A G52A | -1.11
G10C U38A G63C U130G | -2.42
A41G G48U C62A C80U A91U C98U C123A | -7.74
G10C C76G | -1.17
C13U C22G A41U U78G U81C G122A | -4.41
C53U U78C C124G | 1.86
A121U U130G | 1.98
A50C G69A U78C C97U | -4.07

Variant | polymerase ribozyme fitness (log ratio)
G19A G71A | -3.99
C40G G69U U92A G93A C94G A119G | -0.914
C8U G61U A66U C123A U133G | 0.747
U81G G110A | -6.43
G44U G63U | -2.03
C20U G60A C124U | 0.188
C13A G61A C89A | -3.18
A27G G60U A105U | -5.71
A16G G61C C72U U81A U106A U116C | 1.38
C98U A119U | -1.28
A26U G39U G60C U78C G117C | -6.27
C49U G120C | 0.88
C53U G63A | -1.18
C114G G128U U129A | -5.24
C12A U112C | 0.835
G77U C114G | -2.88
C82U C86A C97A | -4.95
A2U A5C | -2.09
C82U G127A | -1.24
G52U G61U U81C C115U | -4.28
C73A C102A | -2.07

Variant | polymerase ribozyme fitness (log ratio)
G51U C114U | -5.14
A5U A68G C82G | -3.79
U54A C82U G113A | -1.2
G36U C64U C115G G117U U132A | -6.32
C11A A26U C72A | -5.37
C13U A29U C102U | -3.96
C28G U32C C56G G117A | -5.54
C64G G77A A111G U116C | -6.18
G65C C123G U133A | -4.9
A50C U92G U112A G135A | -3.14
C53U U126C | -1.07
U21C C89A | -1.81
C114G G117U | -3.8
A16U C70U G117U C123A | -4.02
C56A G127U U129A U130C | -1.7
A5U G63C | -0.837
C4G G39A C40U G93A C102A | -3.57
C49A C94A A103C | -5.92
G110C C124A | -3.32
C49A C123U | 1.14
G63C C80U G110A | -2.48

Variant | polymerase ribozyme fitness (log ratio)
A50C C88A U130C U133A | -0.495
U38A C49G U55G | -2.77
C53U G69A A103C G120U G128C U131G | -6.03
U116C A119G | 1.96
C8G C72A | 0.366
G63C U116A | -3.47
C15A G44U | -2.85
A27U C86A | -3.77
C12A C70A U92A | -5.67
C11U C49U C101A | -2.29
G52A U78A | -0.123
U59G G110U G135U | -2.85
C8G A50C C73U G93A | -0.0523
U9C C73A C85G | -0.637
C12G A27G G39C | -3.18
C56A C72U C104A | -1.61
C40U G71U U92A | -5.4
G25A A43G C72U A111U | -6.94
C13A G45A G113U G117C | -6.5
A37C G39A G61A U112A U116G U133A | -3.64
